# Measurements taken from article PMC6084945, “SURGE complex of Plasmodium falciparum in the rhoptry-neck (SURFIN4.2-RON4-GLURP) contributes to merozoite invasion” (PLoS ONE, 2018).
# B1: recombinant SURFIN4.2 extracellular domain (position 1-746), N-terminal 6x histidine-tagged (domain or fragment)
# chain: MLFVVELDSRLEKSADKRISVERFRKIFEIYVEDKLEELKRSGSEKYDKDCRDFNYFIDDVKDVFINNDLVKIPVKVRKSIWETHVDKNLPKLMKNTTSCKCIRKEHNYNKEYRDMTRTLEDFCEEKTRKLEIIYQKDYDESLYVNFNEWINKKKEDILKEYEKLSNKDKYKHLLKISETCDLNHVDKLFLNISSEDMKKMKEDVKKQHLEVKVRPPVNEPIDDRGKEDALSRGGKSIILNKEENSPTEEITTEYNPVSEMGVGTTIAHSEPGPKTVNTEVRNVLRSDGKISDQGSQKSPPKELSNKQMTPAQRKNVPHFVERRGYGNSHVRGNALKKISNGDDNYKSPSSNYIEVDCAEDKYFLLEDGTNQSENSCKTKYNYFVSNDYDGTGSAIYSTDQVPSREEIKSPDSLSTLDARGSTHNLNVSNEGNPLEGGEEKNNVKISEQNGRNLESSVGTDKGSDKNEEEVAATCDPNDRNCFDGRYINVDYIRGLLKGKRSGSDGRSNIKHIISNNFDDSNMIFPTFNFDFDILKAEEEVLPVNNSDIIYGHEEVEETTQEGASIFEKHSHTSSQQNDSSASGNKYRMLSTTMELPNQQEVFGLYSPVSRTLDSAMSFLRSIISLSSAPVSRSEGQSKESKRVEISTTVQDPIGYRTSPLQMNAHSVGAGINVSSILSMLGLSSGQVRRSGGQGSETYIVGTSQSGFHKNEVIPSIKDKSGKTQIVSNEKGGIFSKGITSMMSSL
# Target: the molecule itself
# Test: non-reducing SDS-PAGE; purified recombinant protein eluted from the nickel resin, Coomassie stained gel with and without 2-mercaptoethanol; dimer size band under non-reducing conditions
protein,measurement,value
B1,stoichiometry N,2
